Measured values: publication PMC6698962 (Antibodies, 2018)
Several values for one entry are separate records, joined by “and”; a condition that tells them apart may be missing. Equal entries are not always repeated.

Legend:
[1] = biological target: T1, human tumor necrosis factor (TNF) (Homo sapiens (huTNFKI mouse BMDM), UniProt P01375); test: flow cytometry on cells; intracellular cytokine staining (BD fixation and permeabilisation kit with GolgiPlug) of BMDM activated by LPS (100 ng/mL, 4 h) in the presence of brefeldin A; Fc-gamma receptor blocked; cells gated on F4/80; Katushka fluorescence read; settings: one partner purified
T1 construct: tumor necrosis factor, human, expressed in place of murine TNF in huTNFKI mice; stained inside fixed and permeabilised cells kept with brefeldin A; in the in vivo rows the hTNF of the knock-in mice; also called hTNF; human TNF
T1 sequence (P01375 whole entry): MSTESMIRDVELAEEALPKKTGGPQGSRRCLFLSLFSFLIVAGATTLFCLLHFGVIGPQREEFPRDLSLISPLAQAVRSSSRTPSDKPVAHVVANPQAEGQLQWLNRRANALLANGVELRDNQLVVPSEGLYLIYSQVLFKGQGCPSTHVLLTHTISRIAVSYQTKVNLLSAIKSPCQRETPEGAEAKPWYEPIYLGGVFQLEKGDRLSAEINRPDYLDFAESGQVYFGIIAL

[2] = biological target: T2, mouse tumor necrosis factor (TNF) (Mus musculus C57Bl/6, UniProt P06804); test: as above; settings: one partner purified
T2 construct: tumor necrosis factor, mouse; stained inside fixed and permeabilised cells kept with brefeldin A; also called mouse TNF; murine TNF
T2 sequence (P06804 whole entry): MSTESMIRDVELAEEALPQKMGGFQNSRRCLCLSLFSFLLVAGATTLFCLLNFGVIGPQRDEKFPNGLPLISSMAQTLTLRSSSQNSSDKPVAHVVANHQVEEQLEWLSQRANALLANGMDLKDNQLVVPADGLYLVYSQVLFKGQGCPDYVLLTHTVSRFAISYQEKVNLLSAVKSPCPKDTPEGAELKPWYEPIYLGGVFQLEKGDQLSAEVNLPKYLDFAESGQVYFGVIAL

[3] = biological target: fluorescent-binding TNF nanobody (BTN-Kat) (Bactrian camel); test: SEC; Superose 6, 5 mg/mL protein, 20 mM NaPi pH 7.4, 150 mM NaCl, 0.5 mL/min; apparent molecular mass from calibration with standard proteins

stoichiometry N [3]: 2 and 3
B1: fluorescent-binding TNF nanobody (BTN-Kat) (VHH)
VHH: QVQLVESGGGSVQAGGSLRLSCAASGSTNSELCMAWFREVPGKEREVVALVNSDGRTIYGEAVKGRFTMSKDNAKNTLYLQMNSLKAEDTAMYYCAAGPGFFGRCNYNSVGQGTQVTVSS
notes: flexible glycine-serine linker; far-red fluorescent protein Katushka (TurboFP635); A mixture of oligomeric forms was used in all experiments; Expression and purification are in Method S1; also called VHH41 fused to Katushka; source: E. coli (BL21(DE3) is named in the title of Result S1), purified
binding result [1]: binds | binding result [2]: binds
